Test results published in US20250262210A1 (TRUSTEES OF COLUMBIA UNIVERSITY IN THE CITY OF NEW YORK, published 2025).

Key:
RALGAPB = target: T1, RALGAPB (human, UniProt Q86X10 1-1494, limits assumed); test: IP/MS, LZTR1 R810W-FLAG, U87
T1 sequence (looked up): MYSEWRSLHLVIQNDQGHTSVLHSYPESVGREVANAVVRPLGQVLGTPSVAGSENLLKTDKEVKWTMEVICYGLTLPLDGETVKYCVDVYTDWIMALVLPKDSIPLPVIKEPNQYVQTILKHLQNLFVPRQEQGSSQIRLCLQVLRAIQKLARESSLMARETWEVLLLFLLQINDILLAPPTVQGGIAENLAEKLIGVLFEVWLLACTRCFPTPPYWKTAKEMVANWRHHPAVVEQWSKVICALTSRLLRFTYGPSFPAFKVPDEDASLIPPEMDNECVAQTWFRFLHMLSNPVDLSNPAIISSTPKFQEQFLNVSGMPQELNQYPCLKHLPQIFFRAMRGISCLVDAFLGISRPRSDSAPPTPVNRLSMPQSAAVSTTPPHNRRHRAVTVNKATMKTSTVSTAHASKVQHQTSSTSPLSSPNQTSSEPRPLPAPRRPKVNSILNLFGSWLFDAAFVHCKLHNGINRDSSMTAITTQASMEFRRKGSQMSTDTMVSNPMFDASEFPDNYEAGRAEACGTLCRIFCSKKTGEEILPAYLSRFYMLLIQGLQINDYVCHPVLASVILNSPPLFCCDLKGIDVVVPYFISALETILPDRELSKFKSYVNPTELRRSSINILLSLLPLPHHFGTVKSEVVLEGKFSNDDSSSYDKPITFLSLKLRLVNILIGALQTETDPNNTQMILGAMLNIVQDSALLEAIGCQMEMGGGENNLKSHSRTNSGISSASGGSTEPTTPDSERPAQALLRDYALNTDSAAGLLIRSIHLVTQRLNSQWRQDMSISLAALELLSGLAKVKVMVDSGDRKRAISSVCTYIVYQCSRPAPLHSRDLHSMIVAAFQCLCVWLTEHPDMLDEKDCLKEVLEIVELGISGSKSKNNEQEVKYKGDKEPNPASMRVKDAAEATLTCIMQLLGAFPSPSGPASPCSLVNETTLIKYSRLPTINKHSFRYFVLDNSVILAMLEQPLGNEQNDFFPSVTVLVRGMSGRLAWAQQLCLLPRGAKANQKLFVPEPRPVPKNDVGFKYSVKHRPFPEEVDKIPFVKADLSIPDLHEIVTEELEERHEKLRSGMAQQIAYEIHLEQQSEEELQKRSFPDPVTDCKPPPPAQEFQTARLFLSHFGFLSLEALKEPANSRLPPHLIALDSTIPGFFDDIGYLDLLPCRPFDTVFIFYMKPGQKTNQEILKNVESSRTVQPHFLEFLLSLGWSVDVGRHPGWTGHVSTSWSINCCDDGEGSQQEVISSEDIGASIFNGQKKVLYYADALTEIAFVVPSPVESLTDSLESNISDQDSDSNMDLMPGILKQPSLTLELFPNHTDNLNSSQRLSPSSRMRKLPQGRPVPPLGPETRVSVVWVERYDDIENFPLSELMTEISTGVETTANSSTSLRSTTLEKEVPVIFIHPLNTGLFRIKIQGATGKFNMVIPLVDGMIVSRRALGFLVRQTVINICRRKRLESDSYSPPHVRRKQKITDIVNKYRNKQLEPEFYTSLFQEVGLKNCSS
Outline: (§1)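 Gel slices were reduced with 5 mM DTT, alkylated with 11 mM IAA and digested overnight at 37° C. with trypsin. Peptides were analysed on an Orbitrap Fusion Tribrid by LC-MS/MS.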

PAPPA = PAPPA (human, UniProt Q13219 82-1627); test: IP/MS, LZTR1 R810W-FLAG, U87
Chain of PAPPA (Q13219 82-1627 limits assumed): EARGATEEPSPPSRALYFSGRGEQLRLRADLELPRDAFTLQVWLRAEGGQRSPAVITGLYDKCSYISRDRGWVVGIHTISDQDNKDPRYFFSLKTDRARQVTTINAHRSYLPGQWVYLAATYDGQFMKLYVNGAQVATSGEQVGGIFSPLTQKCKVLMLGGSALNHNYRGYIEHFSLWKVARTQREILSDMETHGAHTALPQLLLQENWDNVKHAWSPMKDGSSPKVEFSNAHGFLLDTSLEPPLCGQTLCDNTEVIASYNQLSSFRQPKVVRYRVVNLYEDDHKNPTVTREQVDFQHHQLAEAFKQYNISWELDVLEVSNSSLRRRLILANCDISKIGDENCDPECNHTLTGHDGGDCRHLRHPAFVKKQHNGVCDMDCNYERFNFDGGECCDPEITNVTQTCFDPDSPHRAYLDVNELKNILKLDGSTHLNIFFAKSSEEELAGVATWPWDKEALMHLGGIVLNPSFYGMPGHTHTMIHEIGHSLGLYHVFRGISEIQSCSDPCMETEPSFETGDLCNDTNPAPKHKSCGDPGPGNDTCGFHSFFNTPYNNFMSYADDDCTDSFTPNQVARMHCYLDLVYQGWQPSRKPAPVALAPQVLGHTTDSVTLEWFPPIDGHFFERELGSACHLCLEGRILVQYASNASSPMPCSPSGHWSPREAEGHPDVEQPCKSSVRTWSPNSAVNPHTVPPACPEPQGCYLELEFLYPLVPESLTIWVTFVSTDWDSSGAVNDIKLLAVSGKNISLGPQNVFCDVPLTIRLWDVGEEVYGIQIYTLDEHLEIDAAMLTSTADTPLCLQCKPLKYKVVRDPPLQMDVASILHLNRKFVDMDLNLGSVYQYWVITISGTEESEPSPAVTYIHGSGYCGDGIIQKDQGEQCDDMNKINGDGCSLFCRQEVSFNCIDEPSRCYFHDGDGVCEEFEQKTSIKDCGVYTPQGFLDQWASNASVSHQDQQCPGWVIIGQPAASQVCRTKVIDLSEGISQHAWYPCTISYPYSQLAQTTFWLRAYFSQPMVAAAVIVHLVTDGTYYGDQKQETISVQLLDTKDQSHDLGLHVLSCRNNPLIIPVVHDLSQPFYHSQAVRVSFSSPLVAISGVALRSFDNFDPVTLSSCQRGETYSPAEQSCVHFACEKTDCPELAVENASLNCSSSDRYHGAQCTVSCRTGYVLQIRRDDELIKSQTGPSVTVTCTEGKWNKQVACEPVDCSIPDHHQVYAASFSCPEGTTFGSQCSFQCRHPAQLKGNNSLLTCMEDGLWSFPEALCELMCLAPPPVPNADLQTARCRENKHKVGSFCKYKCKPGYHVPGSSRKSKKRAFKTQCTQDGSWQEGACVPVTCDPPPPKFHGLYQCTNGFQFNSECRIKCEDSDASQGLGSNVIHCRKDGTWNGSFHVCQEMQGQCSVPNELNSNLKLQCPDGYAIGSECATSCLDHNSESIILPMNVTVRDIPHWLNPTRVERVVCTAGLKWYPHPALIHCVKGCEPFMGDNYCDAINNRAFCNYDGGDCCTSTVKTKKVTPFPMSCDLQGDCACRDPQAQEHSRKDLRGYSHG
Outline: as §1

B1: LZTR1 R810W-FLAG (other, human, UniProt Q8N653 1-840, looked up)
chain: MAGPGSTGGQIGAAALAGGARSKVAPSVDFDHSCSDSVEYLTLNFGPFETVHRWRRLPPCDEFVGARRSKHTVVAYKDAIYVFGGDNGKTMLNDLLRFDVKDCSWCRAFTTGTPPAPRYHHSAVVYGSSMFVFGGYTGDIYSNSNLKNKNDLFEYKFATGQWTEWKIEGRLPVARSAHGATVYSDKLWIFAGYDGNARLNDMWTIGLQDRELTCWEEVAQSGEIPPSCCNFPVAVCRDKMFVFSGQSGAKITNNLFQFEFKDKTWTRIPTEHLLRGSPPPPQRRYGHTMVAFDRHLYVFGGAADNTLPNELHCYDVDFQTWEVVQPSSDSEVGGAEVPERACASEEVPTLTYEERVGFKKSRDVFGLDFGTTSAKQPTQPASELPSGRLFHAAAVISDAMYIFGGTVDNNIRSGEMYRFQFSCYPKCTLHEDYGRLWESRQFCDVEFVLGEKEECVQGHVAIVTARSRWLRRKITQARERLAQKLEQEAAPVPREAPGVAAGGARPPLLHVAIREAEARPFEVLMQFLYTDKIKYPRKGHVEDVLLIMDVYKLALSFQLCRLEQLCRQYIEASVDLQNVLVVCESAARLQLSQLKEHCLNFVVKESHFNQVIMMKEFERLSSPLIVEIVRRKQQPPPRTPLDQPVDIGTSLIQDMKAYLEGAGAEFCDITLLLDGHPRPAHKAILAARSSYFEAMFRSFMPEDGQVNISIGEMVPSRQAFESMLRYIYYGEVNMPPEDSLYLFAAPYYYGFYNNRLQAYCKQNLEMNVTVQNVLQILEAADKTQALDMKRHCLHIIVHQFTKVSKLPTLWSLSQQLLLDIIDSLASHISDKQCAELGADI
notes: Stably expressed in U87 cells by lentivirus; also called LZTR1-FLAG-R810W; LZTR1 RW; not shown: FLAG tag
- binding result (RALGAPB): binds
- binding result (PAPPA): binds
